Where two headings read alike, the source gives them in different places.
What was measured:
[1] = target: T1, mEGFR ECR (His6-Avi-tagged) (mouse, UniProt Q01279 25-644); test: IgG1 ELISA at pH 6.5, mEGFR ECR against hEGFR ECR
T1 construct: also called mouse EGFR; not shown: His6-Avi tag

[2] = target: T2, hEGFR ECR-His6-Avi-Biotin (human, UniProt P00533 25-642, biotinylated on the Avi tag using BirA ligase); test: ELISA: hEGFR ECR on plate, IgG1 titrated, anti-hFc-HRP; pH 6.5 [table]
T2 construct: also called WT hEGFR ECR; human EGFR ECD; not shown: His6-Avi tag

[3] = target: T2, hEGFR ECR-His6-Avi-Biotin; test: ELISA: hEGFR ECR on plate, IgG1 titrated, anti-hFc-HRP; pH 7.4 [table]
[4] = target: T1, mEGFR ECR (His6-Avi-tagged); test: ELISA: mEGFR ECR on plate, IgG1 titrated, anti-hFc-HRP; pH 6.5 [table]
[5] = target: T1, mEGFR ECR (His6-Avi-tagged); test: ELISA: mEGFR ECR on plate, IgG1 titrated, anti-hFc-HRP; pH 7.4 [table]
[6] = target: T2, hEGFR ECR-His6-Avi-Biotin; test: ELISA: hEGFR ECR on plate, IgG1 titrated, anti-hFc-HRP; pH 6.5 [table]; remark: listed apart in the source
[7] = target: T2, hEGFR ECR-His6-Avi-Biotin; test: ELISA: hEGFR ECR on plate, IgG1 titrated, anti-hFc-HRP; pH 7.4 [table]; remark: listed apart in the source
[8] = target: T2, hEGFR ECR-His6-Avi-Biotin; test: ELISA: G5V2 IgG1 coated on plate, antigen titrated, HRP-labeled His-Tag antibody; pH 7.4
[9] = target: T3, hEGFR ECR H370A (human, UniProt P00533 25-642); test: as above
[10] = target: T2, hEGFR ECR-His6-Avi-Biotin; test: as above; remark: listed apart in the source
[11] = target: T2, hEGFR ECR-His6-Avi-Biotin; test: ELISA: hEGFR ECR on plate, IgG1 titrated, anti-hFc-HRP; EC50 at pH 7.4 over EC50 at pH 6.5 [table]
[12] = target: T1, mEGFR ECR (His6-Avi-tagged); test: ELISA: mEGFR ECR on plate, IgG1 titrated, anti-hFc-HRP; EC50 at pH 7.4 over EC50 at pH 6.5 [table]
[13] = target: T2, hEGFR ECR-His6-Avi-Biotin; test: ELISA: hEGFR ECR on plate, IgG1 titrated, anti-hFc-HRP; EC50 at pH 7.4 over EC50 at pH 6.5 [table]; remark: listed apart in the source
[14] = target: human EGFR domain III (human) (UniProt P00533); test: ELISA: antibody coated on plate, hEGFR domain III titrated (Log[Ag] nM), detected through its His tag; pH not given [table]
[15] = target: T2, hEGFR ECR-His6-Avi-Biotin; test: ELISA: antibody coated on plate, hEGFR ECR titrated (Log[Ag] nM), detected through its His tag; pH not given [table]
[16] = target: T2, hEGFR ECR-His6-Avi-Biotin; test: phage display Fab ELISA on hEGFR ECR
[17] = target: T2, hEGFR ECR-His6-Avi-Biotin; test: phage display Fab ELISA on hEGFR ECR, pH 6.5
[18] = target: T2, hEGFR ECR-His6-Avi-Biotin; test: phage display Fab ELISA on hEGFR ECR, pH 6.5 and pH 7.4
[19] = target: T2, hEGFR ECR-His6-Avi-Biotin; test: phage ELISA: hEGFR ECR on plate, phage display Fab titrated, anti-M13-HRP; EC50 at pH 7.4 over EC50 at pH 6.5 [table]
[20] = target: T3, hEGFR ECR H370A; test: IgG1 ELISA, pH 6.5 and pH 7.4 (EC50 ratio pH 7.4/pH 6.5)
[21] = target: T2, hEGFR ECR-His6-Avi-Biotin; test: ELISA: WT hEGFR ECR on plate, IgG1 titrated, anti-hFc-HRP; pH 6.5 [table]
[22] = target: T2, hEGFR ECR-His6-Avi-Biotin; test: ELISA: WT hEGFR ECR on plate, IgG1 titrated, anti-hFc-HRP; pH 7.4 [table]
[23] = target: T2, hEGFR ECR-His6-Avi-Biotin; test: ELISA: hEGFR ECR on plate, IgG1 titrated, anti-hFc-HRP; pH 6.0 [left panel]
[24] = target: T2, hEGFR ECR-His6-Avi-Biotin; test: ELISA: hEGFR ECR on plate, IgG1 titrated, anti-hFc-HRP; pH 7.4 [left panel]
[25] = target: T3, hEGFR ECR H370A; test: ELISA: hEGFR ECR H370A on plate, IgG1 titrated, anti-hFc-HRP; pH 6.5 [table]
[26] = target: T3, hEGFR ECR H370A; test: ELISA: hEGFR ECR H370A on plate, IgG1 titrated, anti-hFc-HRP; pH 7.4 [table]
[27] = target: hEGFR ECR H433A (human, UniProt P00533 25-642); test: ELISA: hEGFR ECR H433A on plate, IgG1 titrated, anti-hFc-HRP; pH 6.5 and pH 7.4
[28] = target: T2, hEGFR ECR-His6-Avi-Biotin; test: ELISA: WT hEGFR ECR on plate, IgG1 titrated, anti-hFc-HRP; EC50 at pH 7.4 over EC50 at pH 6.5 [table]
[29] = target: T3, hEGFR ECR H370A; test: ELISA: hEGFR ECR H370A on plate, IgG1 titrated, anti-hFc-HRP; EC50 at pH 7.4 over EC50 at pH 6.5 [table]
[30] = target: T2, hEGFR ECR-His6-Avi-Biotin; test: competition ELISA: hEGFR ECR on plate, IgG1 titrated in a mixture with EGF-mFc, bound EGF-mFc detected with anti-mFc-HRP; pH 6.0 [left panel]

B1: G5V2 (human IgG1 form) (antibody, V domains shown)
VH: QVQLVQSGAEVKRPGSSVKVSCKASGGISDGSAISWVRQAPGQGLEWMGGIYFFNGNTNYAQKFQGRVTITADESTSTAYMELSSLRSEDTAVYYCARDSSLGYYDYFDYWGQGTLVTVSS
VL: QPVLTQPPSVSAAPGQTARITCGGNNIGEKYVQWYQQRPGQAPVLVIYYDDDRPSGIPERFSGSNSGNTAALTINSVEAGDEADYYCQAWDDYDPVVFGGGTQLTVLG
[1]
  EC50 ratio, mEGFR/hEGFR (pH 6.5): 1.23
[2]
  EC50: 0.03 nM
[3]
  EC50: 0.031 nM
[4]
  EC50: 0.037 nM
[5]
  EC50: 0.046 nM
[6]
  EC50: 0.502 nM
[7]
  EC50: 0.595 nM
[8]
  EC50 (read off the curve): ~2 nM
[9]
  EC50 (read off the curve): ~3 nM
[10]
  EC50 (read off the curve): ~3 nM
[11]
  EC50 ratio (pH 7.4/pH 6.5): 1.03
[12]
  EC50 ratio (pH 7.4/pH 6.5): 1.24
[13]
  EC50 ratio (pH 7.4/pH 6.5): 1.19
[14]
  EC50: 2.37 nM
[15]
  EC50: 1.24 nM

B2: G5V2 Y32E (phage display Fab form) (Fab, V domains shown)
VH: B1 VH
VL: QPVLTQPPSVSAAPGQTARITCGGNNIGEKEVQWYQQRPGQAPVLVIYYDDDRPSGIPERFSGSNSGNTAALTINSVEAGDEADYYCQAWDDYDPVVFGGGTQLTVL
notes: Y32 is Kabat numbering
[16]
  fold higher binding affinity over G5V2 Y32D: ~3 fold
[17]
  fold decrease of binding affinity at pH 6.5 against G5V2: ~8 fold
[18]
  fold higher pH-dependent binding over WT G5V2: ~13 fold
[19]
  EC50 ratio (pH 7.4/pH 6.5): 15.6

B3: 14C07 (full-length human IgG1 form) (antibody, V domains shown)
VH: QVQLVQSGAEVKRPGSSVKVSCKASGGTFSSYAISWVRQAPGQGLEWMGGIIPIFGTANYAQKFQGRVTITADESTSTAYMELSSLRSEDTAVYYCARDSSSGWYDYFDYWGQGTLVTVSS
VL: QPVLTQPPSVSAAPGAMARITCESPDIGSKSVQWYQQRPGQAPILVIYYDDDRPSGIPERFSGSNSGNTAALTINWVEPEDEADYYCQAWDDSDPVVFGGGTQLTVLG
[1]
  EC50 ratio, mEGFR/hEGFR (pH 6.5): 8.73
[20]
  fold weaker pH-dependency of binding than with WT EGFR ECR: > 2 fold
[2]
  EC50: 0.048 nM
[3]
  EC50: 0.155 nM
[4]
  EC50: 0.419 nM
[5]
  EC50: 2.73 nM
[21]
  EC50: 0.301 nM
[22]
  EC50: 0.818 nM
[23]
  EC50: 0.02 nM
[24]
  EC50: 0.662 nM
[25]
  EC50: 0.433 nM
[26]
  EC50: 0.462 nM
[27]
  binding result: no binding (tested: 100 nM (Log[Ab] 2))
[11]
  EC50 ratio (pH 7.4/pH 6.5): 3.23
[12]
  EC50 ratio (pH 7.4/pH 6.5): 6.52
[28]
  EC50 ratio (pH 7.4/pH 6.5): 2.72
[29]
  EC50 ratio (pH 7.4/pH 6.5): 1.07
[30]
  IC50: 29 nM
